{
  "source": "patent US6835382B2",
  "about": "“Ii peptide therapeutics to enhance antigen presentation” (University of Massachusetts, priority 1996, dated 2004)",
  "key": {"[1]": {"biological_target": "T1, murine A^d MHC class II allele (Mus musculus, UniProt P01921+P04228)", "T1 construct": "The A20 and CH27 B cell lymphoma lines express H-2^d and H-2^k alleles, respectively; endogenous in cells; host or cells: A20 B cell lymphoma (mitomycin C-treated)", "T1 sequence (P04228 24-256)": "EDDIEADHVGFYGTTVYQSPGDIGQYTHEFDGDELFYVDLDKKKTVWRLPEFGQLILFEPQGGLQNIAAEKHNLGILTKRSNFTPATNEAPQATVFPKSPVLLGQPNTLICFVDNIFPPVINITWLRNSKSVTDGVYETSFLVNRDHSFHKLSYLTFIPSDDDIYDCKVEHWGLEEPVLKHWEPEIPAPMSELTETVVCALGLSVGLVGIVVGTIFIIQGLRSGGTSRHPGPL", "T1 sequence (P01921 28-265)": "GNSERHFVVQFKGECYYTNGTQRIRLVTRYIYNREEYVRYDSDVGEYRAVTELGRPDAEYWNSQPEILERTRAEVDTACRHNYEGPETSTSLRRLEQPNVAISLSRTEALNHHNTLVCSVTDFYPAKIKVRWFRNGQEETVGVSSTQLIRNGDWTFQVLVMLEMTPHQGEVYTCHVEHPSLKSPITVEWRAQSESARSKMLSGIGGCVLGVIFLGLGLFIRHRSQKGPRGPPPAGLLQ", "assay": "simultaneous assay, A^d allele (A20 APC, 9.30.B2 T hybridoma, HEL11-25)", "type": "cell-based", "settings": "Table 2; for Times Baseline Response, A^d: AE peptide 64 μM, 0.05 μM HEL11-25, supernatant 1:2", "method": "(§1) In the “simultaneous assay” the four components of the assay are cultured together for a 24 h period. The components of this primary culture, added at the same time or simultaneously, are: (a) the antigenic peptide, (b) mitomycin C-treated, MHC class II-positive antigen presenting cells (APC) with the MHC class II allele required for binding of the specific antigenic peptide and its presentation to the antigenic peptide-specific T cell hybridoma, (c) an AE101 series effector peptide, and (d) MHC class II allele-restricted T cell hybridoma specific for the antigenic peptide and the MHC class II allele restricting its presentation. At the end of the incubation of this primary culture, an aliquot of its supernatant is transferred into a second culture well for incubation with an interleukin-dependent lymphoblastoid cell line. The degree of stimulation of that second, indicator cell by the interleukins which had been released from the activated T cell hybridoma in the primary culture is measured by quantitating tritiated thymidine deoxyribose {[^3H]TdR} uptake into the DNA of the HT-2 indicator cells of that second culture.\n(§2) For these various assays, the following antigenic peptides were used: HEL11-25, hen egg lysozyme 11-25, AMKRHGLDNYRGYSL(A^d) (SEQ ID NO:5); HEL46-61, hen egg lysozyme 46-61, NTDGSTDYGILQINSR(Ak) (SEQ ID NO:6); HEL106-116, hen egg lysozyme 106-116, NAWVAWRNRCK (E^d) (SEQ ID NO:7); PGCC81-104, pigeon cytochrome c 81-104, […] (Ek) (SEQ ID NO:8), and THMCC82-103, tobacco hornworm moth cytochrome c 82-103, […] (Ek) (SEQ ID NO:9). AE101 series peptides were obtained from commercial sources. In general, the purity and composition of each peptide was confirmed by HPLC separation and mass spectrometry. The native protein antigens were HEL, hen egg lysozyme, and PGCC, pigeon cytochrome C. They were obtained from commercial sources.\n(§3) For the experiments of these Examples, several T cell hybridomas, which are specific for certain antigenic peptides, were used. The TPc9.1 T hybridoma is specific for pigeon cytochrome C 81-104 peptide presented on the murine class II MHC allele E^k. The TPc9.1 hybridoma responds heteroclitically to tobacco hornworm moth cytochrome c 82-103 on E^k. The 3A9 T hybridoma is specific for hen egg lysozyme 46-61 on A^k. The 9.30.B2 hybridoma is specific for hen egg lysozyme 11-25 on A^d, and the G28.C9 hybridoma is specific for hen egg lysozyme 106-116 on E^d. The A20 and CH27 B cell lymphoma lines express H-2^d and H-2^k alleles, respectively.\n(§4) Antigenic peptide-specific T cell activation was measured by the following procedure. Mitomycin C-treated A20 cells (A^dE^d) or CH27 cells APC (A^kE^k) were generated by incubating 5×10^6 cells/mL for 20 min at 37° C. with 0.025 mg/mL of mitomycin C (Sigma) in Dulbecco's Modified Eaglel's Medium (DMEM)/10 mM N-2(hydroxyethylpiperazine-N″[2-ethanesulfonic acid] (HEPES), followed by two washes with four volumes of DMEM-5% fetal calf serum (FCS), 10 mM HEPES. Fixed APC were generated by treating 1×10^6 cells/mL for 5 min with 0.5% paraformaldehyde in PBS (pH 7.2), followed by two washes with four volumes of DMEM-10% FCS, 10 mM HEPES. T cell hybridomas were irradiated 2200 rads before each assay.\n(§5) For the “simultaneous assay”, 5×10^4 mitomycin C-treated APC, 5×10^4 T hybridoma cells and a submaximal concentration of antigenic peptide were cultured with and without serial 4-fold dilutions of each AE101 series peptide, usually at 64 μM, 16 μM, 4 μM, and 1 μM, at pH 7.2-7.4, in complete DMEM-5% FCS, 10 mM HEPES, 1×nonessential amino acids (Sigma), 1 mM sodium pyruvate, 2 mM L-glutamine, 100 U/mL penicillin G, 100 μg/mL streptomycin sulfate, 5×10^−5 M 2-mercaptoethanol (2-ME). Wells containing only T hybridoma cells (T)+APC were included to monitor for background T cell activation; and wells containing T+APC+AE101 series peptide were included to monitor for non-specific T hybridoma activation by each AE101 series peptide. […]"}, "[2]": {"biological_target": "T2, murine A^k MHC class II allele (Mus musculus, UniProt P01910+P06343)", "T2 construct": "The A20 and CH27 B cell lymphoma lines express H-2^d and H-2^k alleles, respectively; endogenous in cells; host or cells: CH27 B cell lymphoma (mitomycin C-treated)", "T2 sequence (P01910 24-256)": "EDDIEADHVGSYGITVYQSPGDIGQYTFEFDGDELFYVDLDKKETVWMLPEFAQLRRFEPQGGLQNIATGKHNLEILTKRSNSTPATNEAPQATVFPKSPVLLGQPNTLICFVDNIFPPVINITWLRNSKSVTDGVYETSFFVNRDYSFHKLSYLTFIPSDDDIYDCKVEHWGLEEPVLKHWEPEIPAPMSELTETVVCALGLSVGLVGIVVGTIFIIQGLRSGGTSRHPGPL", "T2 sequence (P06343 28-263)": "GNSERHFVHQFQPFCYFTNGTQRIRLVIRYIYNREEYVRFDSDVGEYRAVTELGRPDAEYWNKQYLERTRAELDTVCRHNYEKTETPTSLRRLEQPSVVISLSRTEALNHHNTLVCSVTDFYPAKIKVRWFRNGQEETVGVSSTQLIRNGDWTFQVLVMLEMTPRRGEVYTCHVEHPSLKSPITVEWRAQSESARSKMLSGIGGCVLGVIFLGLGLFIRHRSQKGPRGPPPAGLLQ", "assay": "simultaneous assay, A^k allele (CH27 APC, 3A9 T hybridoma, HEL46-61)", "type": "cell-based", "settings": "Table 2; for Times Baseline Response, A^k: AE peptide 64 μM, 0.05 μM HEL46-61, supernatant 1:2; for activity in simultaneous assay in the A^k system, in words: 64 μM", "method": "as §1, §2, §3, §4, §5"}, "[3]": {"tested_on": "HLA-DR1 molecules", "assay": "release of biotin-labeled hMBP(90-102) from HLA-DR1 without unlabeled antigenic peptide (assay I)", "type": "binding, human", "settings": "for Relative Release, Without unlabeled hMBP(90-102), 1 μM / Relative Release, Without unlabeled hMBP(90-102), 64 μM: Table 37, no unlabeled hMBP(90-102); for Relative Release, Without unlabeled hMBP(90-102), 1 μM: AE101 series compound 1 μM; for Relative Release, Without unlabeled hMBP(90-102), 64 μM / Relative Release: AE101 series compound 64 μM; for Relative Release: Table 36, fraction of o.d. of positive control (PBS only = 1.0; negative control = 0.0)"}, "[4]": {"tested_on": "HLA-DR1 molecules", "assay": "exchange of biotinylated hMBP(90-102) into antigenic peptide-loaded HLA-DR1 (assay III)", "type": "binding, human", "settings": "Table 38; HLA-DR1 preloaded with unlabeled hMBP(90-102) 50 μM; exchange with biotin-labeled hMBP(90-102) 50 μM, 37° C., 1 h; fraction of positive control o.d.; no enhancement = 0.08"}},
  "note": "Non-standard residues stand in square brackets, D forms with d.",
  "data": [
    {"substance": "Ac-DSLRMKLPKSAK-NH2 [AE154]", "values": [
      {"measurement": "Times Baseline Response, A^d", "setting": "[1]", "result": 1.1},
      {"measurement": "Times Baseline Response, A^k", "setting": "[2]", "result": 1.0}
    ]},
    {"substance": "Ac-LDSLRMKLPKSAK-NH2 [AE153]", "values": [
      {"measurement": "Times Baseline Response, A^d", "setting": "[1]", "result": 1.2},
      {"measurement": "Times Baseline Response, A^k", "setting": "[2]", "result": 1.0}
    ]},
    {"substance": "Ac-LQLDSLRMKLPKSAK-NH2 [AE151]", "values": [
      {"measurement": "Times Baseline Response, A^d", "setting": "[1]", "result": 1.1},
      {"measurement": "activity in simultaneous assay in the A^k system, in words", "setting": "[2]", "result": "inhibitory"},
      {"measurement": "Times Baseline Response, A^k", "setting": "[2]", "result": 0.5}
    ]},
    {"substance": "Ac-LR L KLPK-NH2 (Ac-LRLKLPK-NH2; not fully specified; printed as Ac-LR L KLPK-NH2) [AE206]", "values": [
      {"measurement": "Relative Release, Without unlabeled hMBP(90-102), 1 μM", "setting": "[3]", "result": 0.58},
      {"measurement": "Relative Release, Without unlabeled hMBP(90-102), 64 μM", "setting": "[3]", "result": 0.08},
      {"measurement": "Relative Binding", "setting": "[4]", "result": "−0.13"}
    ]},
    {"substance": "Ac-LRMK Y PK-NH2 (Ac-LRMKYPK-NH2; not fully specified; printed as Ac-LRMK Y PK-NH2) [AE235]", "values": [
      {"measurement": "release of biotin-labeled hMBP(90-102) from HLA-DR1 without second unlabeled antigenic peptide, in words", "setting": "[3]; Table 36 (compounds tested at 64 μM)", "result": "did not release"},
      {"measurement": "Relative Release", "setting": "[3]", "result": 0.79},
      {"measurement": "Relative Release, Without unlabeled hMBP(90-102), 1 μM", "setting": "[3]", "result": 1.05},
      {"measurement": "Relative Release, Without unlabeled hMBP(90-102), 64 μM", "setting": "[3]", "result": 0.81},
      {"measurement": "Relative Binding", "setting": "[4]", "result": 0.15}
    ]},
    {"substance": "Ac-LRMKLPKSAK-NH2 [AE110]", "values": [
      {"measurement": "activity in simultaneous assay in the A^d system, in words", "setting": "[1]; 64 μM", "result": "not active"},
      {"measurement": "Times Baseline Response, A^d", "setting": "[1]", "result": 0.7},
      {"measurement": "activity in simultaneous assay in the A^k system, in words", "setting": "[2]", "result": "inactive"},
      {"measurement": "Times Baseline Response, A^k", "setting": "[2]", "result": 0.8}
    ]},
    {"substance": "Ac-NLQLDSLRMKLPKSAK-NH2 [AE150]", "values": [
      {"measurement": "Times Baseline Response, A^d", "setting": "[1]", "result": 1.0},
      {"measurement": "activity in simultaneous assay in the A^k system, in words", "setting": "[2]", "result": "inhibitory"},
      {"measurement": "Times Baseline Response, A^k", "setting": "[2]", "result": 0.0}
    ]},
    {"substance": "Ac-QLDSLRMKLPKSAK-NH2 [AE152]", "values": [
      {"measurement": "Times Baseline Response, A^d", "setting": "[1]", "result": 0.9},
      {"measurement": "activity in simultaneous assay in the A^k system, in words", "setting": "[2]", "result": "inhibitory"},
      {"measurement": "Times Baseline Response, A^k", "setting": "[2]", "result": 0.5}
    ]},
    {"substance": "Ac-SLRMKLPKSAK-NH2 [AE155]", "values": [
      {"measurement": "Times Baseline Response, A^d", "setting": "[1]", "result": 0.8},
      {"measurement": "Times Baseline Response, A^k", "setting": "[2]", "result": 1.0}
    ]},
    {"substance": "Ac-YRMKL hydrP KSAK-NH2 (Ac-YRMKL[hydrP]KSAK-NH2) [AE143]", "values": [
      {"measurement": "Relative Release, Without unlabeled hMBP(90-102), 1 μM", "setting": "[3]", "result": 0.51},
      {"measurement": "Relative Release, Without unlabeled hMBP(90-102), 64 μM", "setting": "[3]", "result": 0.58}
    ]},
    {"substance": "Ac-YRMKLPKSAK-NH2 [AE109]", "values": [
      {"measurement": "Times Baseline Response, A^d", "setting": "[1]", "result": 0.9},
      {"measurement": "Times Baseline Response, A^k", "setting": "[2]", "result": 1.2}
    ]},
    {"substance": "YRMKLPKSAKPVSQMR [AE101]", "values": [
      {"measurement": "release of hMBP(90-102) from HLA-DR1", "setting": "[3]; AE peptide at 125 nM, additional experiments", "result": "completely release"},
      {"measurement": "release of biotin-labeled hMBP(90-102) (Relative Release)", "setting": "[3]; AE peptide at 1 μM without unlabeled hMBP(90-102)", "result": 0.02},
      {"measurement": "Relative Release", "setting": "[3]", "result": "−0.33"},
      {"measurement": "Relative Binding", "setting": "[4]", "result": 0.31}
    ]}
  ]
}
